From patent US5668264, “High affinity PDGF nucleic acid ligands” (NeXstar Pharmaceuticals, Inc.) come the findings set out here.

In data set [1] the target is T1, PDGF AB (Homo sapiens, UniProt P04085;P01127 P04085:87-211,P01127:82-190). Put plainly: filter; among seven highest affinity ligands; data not shown. The settings on record: tags: R&D Systems 222-AB; chain copies: A/B chain heterodimer (inferred).
The target of another data set is PDGF AA (UniProt P04085 P04085:87-211). Description: filter; monophasic. Conditions: chain copies: AA homodimer (inferred). The text has this: […]-[…]-3') SEQ ID NO: 88, and 26t (5'-[…] T-3') SEQ ID NO: 89.
The target in a further data set is PDGF BB (UniProt P01127 P01127:82-190). Put plainly: filter; biphasic, higher affinity component. The settings on record: chain copies: BB homodimer (inferred). On the procedure:
(§1) 22: 1859), and the equilibrium dissociation constants were determined by nitrocellulose filter binding. […] […]-[…]-3') SEQ ID NO: 88, and 26t (5'-[…] T-3') SEQ ID NO: 89.
(§2) The binding data were analyzed according the formalism described in Jellinek et al., 1994: supra.

Data set [2] deals with T1, PDGF AB. Description: filter; biphasic, higher affinity component. Conditions: tags: R&D Systems 222-AB; chain copies: A/B chain heterodimer (inferred). On the procedure: as §1, §2

Sequence of PDGF BB (P01127 82-190, one chain of several): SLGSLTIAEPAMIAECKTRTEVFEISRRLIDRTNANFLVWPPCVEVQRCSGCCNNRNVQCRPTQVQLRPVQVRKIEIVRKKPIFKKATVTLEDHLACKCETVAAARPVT
T1 sequence (P01127 82-190, chain 2 of 2, other chains not shown): as the sequence (P01127 82-190, one chain of several) above

B1: ssDNA ligand 26 (ssDNA)
DNA: ATCCGCCTGATTAGCGATACTAGAGGGGAAGTAGGCTGCCTGACTCGAGAGAGTCCTCCCGACTTGAGCAAAATCACCTGCAGGGG
Turning to B1, in the data set with PDGF AB [1], the binding result is on record as “binds”.

B2: 36t (ssDNA)
DNA: CCACAGGCTACGGCACGTAGAGCATCACCATGATCCTGTGT
modifications: 3'-3' inverted T at 3' end
As for B2, the Kd worked out at 72 nM in the data set with PDGF AA, 0.054 nM in the data set with PDGF BB and 0.082 nM in the data set with PDGF AB [2].

B3: ssDNA ligand 38 (ssDNA)
DNA: ATCCGCCTGATTAGCGATACTAAAGTCGTGCAGGGTCCCCTGGAAGCATCTCCGATCCCAGACTTGAGCAAAATCACCTGCAGGGG
As for B3, in the data set with PDGF AB [1], the binding result is on record as “binds”.

B4: ssDNA ligand 36 (ssDNA)
DNA: ATCCGCCTGATTAGCGATACTCCACAGGCTACGGCACGTAGAGCATCACCATGATCCTGTGACTTGAGCAAAATCACCTGCAGGGG
As for B4, in the data set with PDGF AB [1], the binding result is given as “binds”.

B5: ssDNA ligand 40 (ssDNA)
DNA: ATCCGCCTGATTAGCGATACTAGTGGAACAGGGCACGGAGAGTCAAACTTTGGTTTCCCCCACTTGAGCAAAATCACCTGCAGGGG
Consider B5, for which the binding result in the data set with PDGF AB [1] is “binds”.

B6: 20t-a (ssDNA)
DNA: TGGGAGGGCGCGTTCTTCGTGGTTACTTTTAGTCCCGT
modifications: 3'-3' inverted T at 3' end (described for truncated ligands)
With B6, the Kd was found to be 0.09 nM with PDGF BB and 0.082 nM in the data set with PDGF AB [2].

B7: 41t (ssDNA)
DNA: TACTCAGGGCACTGCAAGCAATTGTGGTCCCAATGGGCTGAGTAT
modifications: 3'-3' inverted T at 3' end
On to B7, for which the Kd with PDGF BB is 0.056 nM; in the data set with PDGF AB [2], 0.051 nM.

B8: ssDNA ligand 14 (ssDNA)
DNA: ATCCGCCTGATTAGCGATACTAGGCTTGACAAAGGGCACCATGGCTTAGTGGTCCTAGTACTTGAGCAAAATCACCTGCAGGGG
On to B8, for which, in the data set with PDGF AB [1], the binding result is “binds”.

Usually Kd stands for the free concentration of one partner at which half of the binding sites on the other are occupied at equilibrium, for simple one-to-one binding.
